Source: paper doi:10.1101/2025.01.22.634233

How the values were obtained:
Experiment in all cases: fluorescence polarisation
[1] = target: pS5-(CTD)2 peptide, 5,6-FAM-labelled
[2] = target: pY1pS5-(CTD)2 peptide, 5,6-FAM-labelled
[3] = target: non-phosphorylated (CTD)2 peptide, 5,6-FAM-labelled

Substance	Kd [1]	Kd [2]	Kd [3]
BRCA1 BRCT R1699L (from UniProt P38398 1646-1859) (domain or fragment)	413 µM		
BRCA1 BRCT^S1655F,K1702M (from UniProt P38398 1646-1859) (domain or fragment)	895 µM		
BRCA1 BRCT (BRCA1^1646-1859), wild type (from UniProt P38398 1646-1859) (domain or fragment)		184 µM	948 µM
